Test system: K4 kissing-loop RNA reporter
Assay: apparent KD of K4 kissing-loop reporter; higher = weaker reporter binding
Details: Eterna round: R107
Experimental: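 RNA-MaP round R107: designed RNA switches with theophylline, tryptophan, arginine or FMN aptamers are transcribed on-chip within common flanks. They are titrated with a labelled K4 kissing-loop RNA reporter in RNA-MaP buffer (100 mM Tris pH 7.5, 80 mM KCl, 4 mM MgCl2), without ligand or with the indicated ligand. Median apparent KD per design.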

[1] = input ligand: theophylline 20 uM
[2] = input ligand: tryptophan 2.4 mM
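Further: bound reporter read as fluorescence of individual clusters on recovered sequencing chips by microscopy, with normalized cluster intensities fitted with a binding model.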

Sequence	apparent KD of K4 kissing-loop reporter (input ligand: FMN 200 uM)	apparent KD of K4 kissing-loop reporter (input ligand: arginine 13.2 mM)	apparent KD of K4 kissing-loop reporter (input ligand: none)	apparent KD of K4 kissing-loop reporter [1]	apparent KD of K4 kissing-loop reporter [2]
ACGUCCGGAUUGAUCGUGGGCAUGGUCGAUACCAGUAGUUUAAUCUACCCUUGGCAGCGACAUGAGUGAUGUUCAUGUGCGGUGA [#14 K4 Theophylline A Exclusion]	194 nM	191 nM	188 nM	402 nM	200 nM
ACGUGCACCAGUGAUGUUGGAAAAUAUGAAGGAGCGGGUGAAAGCCCAGGUAGGUCGCAUAAUAGCACGAGCCACGAAAGUGGCA	131 nM	175 nM	184 nM	154 nM	117 nM
AGAACUGUCUGAGAUACCAGCCAGGAAGUGAUGUUUCCAGCUCCACGAAAGUGGAGCCAUGGCCCUUGGCAGCUCAGACAGUUCA [Omei KL Theo B SS A v5]	150 nM	141 nM	147 nM	105 nM	154 nM
AGACUACCACACUGUCAAUAGACAGUGAGCUAGGAUAUGCUGAUAAGCAGAAGGAGUGAUGUUCCGAGGUAGUCAAUAAAAUAAU [FmnAX 13 G29+G66]	395 nM	273 nM	261 nM	357 nM	257 nM
AGACUACCACACUGUCAAUAGACAGUGGACUAGGAUAUGCUGAUAAGCAGAAGGAGUGAUGUUCCUCGGUAGUCAAUAAAAUAAU [FmnAX 13 G28+C67]	323 nM	318 nM	286 nM	489 nM	273 nM
AGAGAUAUAUGAGGAUAUGAGUUAGUUAAUGAGUUAGUUUUAGUGUUGUUUGGUUAGUGAUGUUAUUUAGAAGGCGUGAGUGAUG [cxfsmullin]	89.7 nM	66.4 nM	67.7 nM	96.9 nM	60.8 nM
AGAGUUAUGAGAGGAUAUGCGGCUAGUACUCAAAGAGUACUAGCAGCAGAGUGAUGUUCUGUGAAAGCAGAAGGUUCAUAACUCA [#06 K4 FMN B Same State]	124 nM	668 nM	627 nM	563 nM	641 nM
AGAUUCGACACGGCCGCCACUCGUGGUGGAUUACCUAGUGUCGAAGUUGAGUGAUGUUCAAGUACGAGGACCGGGUGUUGAGUCU [KL-XTryp-B8 #analogue]	420 nM	310 nM	370 nM	403 nM	500 nM
AGAUUCGACACGGCCGCCACUUCCAGUGGCUGGUGUCAUGGUGCGCGUGAGUGAUGUUUAUGUGGAAGGACCGGGUGUUGAGUCU [KL-XTryp-B1 #analogue]	938 nM	554 nM	917 nM	606 nM	1190 nM
AGCAAUAUCACGGCCGCCACUGAAUAUUGUUUUUAUAUUUAGAAAUCUUGCCAGUGAUGUUGGUUCAGGACCGGGUGAGUUAAUA [JR_SSTryptoB_Sub005]	435 nM	430 nM	466 nM	450 nM	401 nM
AGCAAUAUCACGGCCGCCACUGAAUAUUGUUUUUAUAUUUAUAAAUCUUGCCAGUGAUGUUGGUUCAGGACCGGGUGAGUUAAUA [JR_SSTryptoB_Sub004]	573 nM	603 nM	783 nM	665 nM	412 nM
AGCCGAAAGGCGAGUGCUGUCACUCCGGAAGGAGCGGCGAAAACGCCAGGUAGGUCGCCGGAGUGAUGUUCCGGUGCAGCACUCA [Omei KL Arginine A Exc B v2]	603 nM	410 nM	932 nM	521 nM	492 nM
AGCGGCCAGUCGGCCGCCACUCCGGGCAGUGAUGUUGCGAAGUGUCUACUAGAGUGAUGUUCUAAGAGGACCGGGACUGACGUAU [Exclusion Tryptophan B Gf 11]	434 nM	394 nM	534 nM	476 nM	332 nM
AGCGUCUGAAGAGGAUAUGACCAGUGAUGUUGGUUACUACCUCAAAUUAGUGUCUCGUCAAAAUCGUCAGAAGGCUUCGACGAGC [#09 K4 FMN B Exclusion]	122 nM	96.2 nM	95.7 nM	92.8 nM	91.2 nM
AGGAGCGUGCGAUGCAAAUCGCACGCUCCUCGAGGACCGGUACGGCCGCCACUCGCUCGCGCCGAGUGAUGUUCGGCCGGCGAAC [#2 Same State - Tryptophan A Attempt #10 (HarryS)]	266 nM	236 nM	265 nM	289 nM	452 nM
AGGCACGAGCAAGGAUAUUGAGUAGAGUGAUGUUCUGCCUGGGUUGGCUCGAAAGAGCCUUCUCAGCGAGAAGGUGCUCGUGCCU [#2 Same State - FMN A Attempt #22 (HarryS)]	290 nM	603 nM	616 nM	367 nM	719 nM
AGGGCACUGGCGGCCGCCACUUUUCGUGCGAACCAAAGCUAGUGAUGUUGGCUCCCUAGUUGCAAAAGGACCGGGCCGUUCAUCU [theeternabot_sameState_KL_Trp_B_37]	315 nM	195 nM	302 nM	296 nM	211 nM
AGGUUUUGAUUAGGAUAUGCACUGACGACGAGAAUAUAGUGAUGUUAUAUACUACGAAUUAGUAGAGUAGAAGGGAUUGAGGUUU [SSFMNB.Y]	344 nM	265 nM	330 nM	322 nM	245 nM
AGGUUUUGAUUAGGAUAUGCACUGACGAUGAGAAUAUAGUGAUGUUAUAUACUACGAAUUAGUAGAGUAGAAGGGAUUGAGGUUU [SSFMNB.Z]	568 nM	338 nM	414 nM	459 nM	335 nM
AGUAAUAUCACGGCCGCCACUGAUUAUUGUUUUUAUAGUUAUAAAUCUUGCCAGUGAUGUUGGUUCAGGACCGGGUGAGUUAAUA [JR_SSTryptoB_Sub001]	429 nM	469 nM	584 nM	727 nM	299 nM
AGUCCACUCUAAAGAGUGGACCUAAGGGAUACCAGUGAUGUUGGUCACCCUUGGCAGCCCGCUGUCAUCGAUAAAGAUGGCAGGA	133 nM	113 nM	129 nM	127 nM	125 nM
AGUGAUAUAUGAGGAUAUGGGAUUGUUAAUGAGUUAGUUUUAGUGUUGUUUGGUUAGUGAUGUUAUUUAGAAGGCGUGAGUGAUG [kuktrmullin]	93.6 nM	87.4 nM	96 nM	116 nM	70.4 nM

Sequence	apparent KD of K4 kissing-loop reporter (input ligand: FMN 200 uM)	apparent KD of K4 kissing-loop reporter (input ligand: arginine 13.2 mM)	apparent KD of K4 kissing-loop reporter (input ligand: none)	apparent KD of K4 kissing-loop reporter [1]	apparent KD of K4 kissing-loop reporter [2]
AGUGUUGUAUGGCGGUUUGUCACUUAGGAUCAGGAUAUAUAAACAAAUAGAAGGGAUGGCGGAGUGAUGUUCCGCCGGCCGCCAU [FMN A Exl V7]	132 nM	128 nM	121 nM	126 nM	121 nM
AGUGUUUGGUUAGAUACCAGCCGUCUGUGGAUAAUCCUCAGACCGCCAGUGAUGUUGGCAGGCCCUUGGCAGCUAACAGGACAGA [Ersoed]	198 nM	213 nM	275 nM	233 nM	224 nM
AGUUAUGUAUCAGGAUAUUAGUGAUGUUUGUUUAUGUUAGUGAUGUUGAUAUUUGUUUUAUGUAUUUAAGAAGGGAUUGAGAUGU [ccgcmullin]	57.1 nM	20.7 nM	48 nM	30.6 nM	46.6 nM
AUAAUAUGAGUGAUGUUCAUGAAACCUGAAGGAGCGGACGAAAGUCCAGGUAGGUCGCAGGACUCCUUCAACAUGGGAGAGGGAG [KL-SSArg-A8 #analogue]	153 nM	180 nM	166 nM	194 nM	150 nM
AUAGCUGAUAGCAGUGAUGUUGCUUCAGAUACCAGACGAGAUCAUGUCCCUUGGCAGCUGACAUGGCAAGUGCUAGGUUAGAUGA [#11 K4 Theophylline A Exclusion]	140 nM	114 nM	125 nM	120 nM	130 nM
AUAGGAUUGCGAGGAUAUCCUUCCCACGUCGAAGUACCGUGCUUGAUGGAGUGAUGUUCGAUCAGAGGAGAAGGUGCGGUUUUGU [Same State FMN B GF24]	292 nM	593 nM	942 nM	732 nM	944 nM
AUGGGUCCACGAAGGAGCGCCGUGCAGUGAUGUUGCAGUUAGAUCCAGUGAUGUUUGGGCCGGCAGGUAGGUCGCGUGGAUUUAU [Exclusion Arginine B GF 22]	249 nM	199 nM	249 nM	243 nM	222 nM
AUGUAUGAAUUAGGAUAUCGUUAGCCUAUCAUAUAUAUGAUAAAUGGAUAUGUCGUAGUGAUGUUACGAGAAGGAGUGUGGAGUA [KL-XFMN-B7]	55.8 nM	62.9 nM	55.4 nM	82.7 nM	39 nM
AUGUCUUAUAAACUCAUGGUUUCGAUCGAUACCAGUAGCGAGAGUUACCCUUGGCAGCGACAUGAGUGAUGUUCAUGUACGAAGA [KL-XTheoA5]	109 nM	98.7 nM	103 nM	106 nM	90 nM
AUUAAUUUCAGAGGAUAUCGUUAUUUUUUUAAGUAUAAUCUAUUAUGCAGUGAUGUUGCUAUUAAUCGAGAAGGCUGAUUUAUAA [JR_ExcFMNB_Sub001]	114 nM	141 nM	79.5 nM	134 nM	78.5 nM
AUUACAUCUGAAAAGCUAGUGAUGUUAGCUCGAGGACCGGUACGGCCGCCACUCGCAUAGCGAGGCCAAGUCGCGGUUAACGGAG [theeternabot_exclusion_KL_Trp_A_4]	96.7 nM	86.7 nM	97.2 nM	89.1 nM	83.3 nM
AUUAUAUAGGCGGCCGCCACUAGUGAUGUUAGUGAUGUCAUAAUAUAAUGAUAAAUUAUAUUGCGUAGGACCGGGCCUAAAUAUU [#15 K4 Tryptophan B Exclusion]	108 nM	62.3 nM	86.3 nM	100 nM	111 nM
AUUAUAUUGUGAAGGAGCGCGCAUAGUAGUGAUGUUACUAUGACAUAUCUUAUUUAAUUCUCGCAGGUAGGUCGCACAUUAUAUA [JR_Nu_ExcArginiB_Sub026]	92.5 nM	64.8 nM	79.7 nM	65.5 nM	71.8 nM
AUUCCCACUUAAGGAUAUCAAGGAGUGAUGUUCCAAAUGGUCCACGUCGCGGCUCUCCGGGCACAAUGAGAAGGUAAAGCUGGGU [theeternabot_exclusion_KL_FMN_B_43]	278 nM	275 nM	276 nM	370 nM	210 nM
AUUGUACAGGGAAGGAGCGUCGACCAGUGAUGUUGGAGUUAAAUACCAGUGAUGUUGGUUAGGCAGGUAGGUCGCCCUCAAGUAG [#10 K4 Arginine B Exclusion]	180 nM	126 nM	141 nM	219 nM	118 nM
AUUUAAUUAACUGAUACCAGACUUUAAGUAAUUAUUAAAACUAGUGAUGUUAGUUUAUCUGUCCCUUGGCAGCAGUUUCUACUUA [JR_Nu_ExcTheophyB_Sub020]	144 nM	136 nM	158 nM	135 nM	127 nM
AUUUAAUUAACUGAUACCAGACUUUAUGUAUUUAUUAAAACUAGUGAUGUUAGUUUAUCUGUCCCUUGGCAGCAGUUUCUACUUA [JR_Nu_ExcTheophyB_Sub021]	93.5 nM	113 nM	105 nM	105 nM	83.4 nM
AUUUAGACGAGUGAUGUUCGUGAUUUUUCAGAGGAUAUGCGUAAUAGCAGAAGGCUGUAUUUAUAUAUAUUUUGAUUUUUUUAAA [JR_ExcFMNA_Sub009]	69.6 nM	81.6 nM	59.5 nM	82.8 nM	62.3 nM
AUUUAGACGAGUGAUGUUCGUGUUUUUUCAGAGGAUAUGCGUAAUUGCAGAAGGCUGUAUUUAUAUAUGUUUUGUUUUUUUAAAA [JR_ExcFMNA_Sub008]	80.4 nM	92.1 nM	75.4 nM	93.6 nM	69.3 nM
AUUUUGUUGUCAGGAUAUUAGUAUGGUUUUGGUUUGUUAGUGAUGUUGAUGUUUUGUUUAUGUAUUUAAGAAGGGAUUUAGCGGU [aqaawgumullin]	474 nM	352 nM	400 nM	401 nM	343 nM
AUUUUUUACAGAAGGAGCGUGUUUUAAUAAUCAUGGUGCUUAGCGAGUGAUGUUCGCUUUACACAGGUAGGUCGCUGUUUAUUUA [JR_Nu_ExcArginiB_Sub030]	120 nM	113 nM	127 nM	112 nM	112 nM
